Source: the supplement of paper PMC7125110
± gives the standard error. Variants at the floor of the assay were thinned out.

B1: glmS ribozyme (parent)
chain: AUAAAAGCGCCAGAACUACAGAAAUGUAGUUGACGAGGAGGAGGUUUAUCGAAUUUUCGGCGGAUGCCUCCAAA

Assays:
Details in all cases: with glucosamine-6-phosphate
[1] = variants of: B1; assay: self-cleavage kobs at 40 uM GlcN6P; higher = faster cleavage; RNA array
Method in brief: (§1)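 Barcoded ribozyme variants were transcribed in situ on sequenced MiSeq chips by E. coli RNA polymerase. At 37 °C, a hybridised Cy3 probe tracked them while glucosamine-6-phosphate (40 μM to 10 mM) in HEPES/KCl/Mg(OAc)2 buffer flowed in and tiles were imaged over ~14 h. Per-tile medians of signals normalised to baseline and to non-cleaving reference variants were fit to one- or two-exponential decays, giving kobs. kcat and KM came from weighted Michaelis–Menten fits across concentrations.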

[2] = variants of: B1; assay: self-cleavage kobs at 160 uM GlcN6P; higher = faster cleavage; RNA array
Method in brief: as §1

[3] = variants of: B1; assay: self-cleavage kobs at 2500 uM GlcN6P; higher = faster cleavage; RNA array
Method in brief: as §1

[4] = variants of: B1; assay: self-cleavage kobs at 10000 uM GlcN6P; higher = faster cleavage; RNA array
Method in brief: as §1

[5] = variants of: B1; assay: self-cleavage kobs at 640 uM GlcN6P; higher = faster cleavage; RNA array
Method in brief: as §1

| Variant | self-cleavage kobs at 40 uM GlcN6P [1] [s⁻¹] | self-cleavage kobs at 160 uM GlcN6P [2] [s⁻¹] | self-cleavage kobs at 2500 uM GlcN6P [3] [s⁻¹] | self-cleavage kobs at 10000 uM GlcN6P [4] [s⁻¹] | self-cleavage kobs at 640 uM GlcN6P [5] [s⁻¹] |
| --- | --- | --- | --- | --- | --- |
| A33C A42U C61A | < 1e-05 |  |  |  |  |
| G26U C70U | 0.000967 ± 0.00041 | 0.00126 ± 0.00046 | 0.000552 ± 0.0002 |  |  |
| A14U C34G A42U U45C A53C | < 1e-05 |  |  | < 1e-05 |  |
| G59A U65G | < 1e-05 |  |  |  |  |
| A6C G43C | < 1e-05 | < 1e-05 |  | < 1e-05 | < 1e-05 |
| C8G A64C | < 1e-05 | < 1e-05 | < 1e-05 | < 1e-05 |  |
| A33G G40U U49C | < 1e-05 |  |  | < 1e-05 |  |
| G35A U56C C58U | < 1e-05 |  |  | < 1e-05 |  |
| C50G G62U | 0.00036 ± 0.00014 | 0.000115 ± 1.8e-05 |  | 3.35e-05 ± 1e-05 | 0.000122 ± 2.7e-05 |
| A42C U49A G63C | < 1e-05 |  |  |  |  |
| A33U U56A U65A | < 1e-05 |  |  |  |  |
| G13A G59U | < 1e-05 |  |  |  |  |
| G21U G40C | 0.000253 ± 6.1e-05 |  |  | 0.00248 ± 0.00053 |  |
| G7A G32A G51A G62C C68A | < 1e-05 | < 1e-05 |  |  |  |
| G21U G43U G51U | < 1e-05 |  |  | < 1e-05 | < 1e-05 |
| A6G A12G G66A | < 1e-05 |  |  |  | < 1e-05 |
| U65G C67A | 7.27e-05 ± 1.2e-05 | 0.000116 ± 1.9e-05 | 0.00133 ± 0.0004 | 0.00417 ± 0.0006 | 0.000435 ± 6.7e-05 |
| C10G U46G | < 1e-05 | < 1e-05 | < 1e-05 |  | < 1e-05 |
| G29A U31C G35U G66A | < 1e-05 |  |  |  |  |
| G7C U31C G43C C50U | < 1e-05 | < 1e-05 |  | < 1e-05 | < 1e-05 |
| U30A G43C | < 1e-05 |  |  | < 1e-05 | < 1e-05 |
| C10U G44A | < 1e-05 | < 1e-05 |  | < 1e-05 | < 1e-05 |
| G7C G32U C34A G35C | < 1e-05 |  |  |  |  |
| U31A C61A A64U | < 1e-05 |  |  | < 1e-05 |  |
| A53C C61U | < 1e-05 | < 1e-05 |  |  | < 1e-05 |
